Here are results for one substance from publication PMC5586346.

For assay [1], the target named is dominant-negative α7 nAChR α7_(345-8A) (UniProt P36544).
In assay [2] the target is α7 nicotinic acetylcholine receptor (mouse (endogenous in EOC20)) (UniProt P49582).
The target in assay [3] is dominant-negative α7 nAChR α7_(345-8A) (UniProt P36544). This is another data set of the same source.
Assay [4] concerns the target α7 nicotinic acetylcholine receptor (mouse (endogenous in EOC20)) (UniProt P49582). This is another data set of the same source.

Regarding “heterotrimeric G protein subunit Gαi (from UniProt P08752 1-355) (natural protein)”, the TNF-α release (ELISA of the medium), % change from baseline with LPS, LPS + 1 mM choline, EOC20 cells transfected with α7 (345-8A) in assay [1] is -9.22%. In addition, in assay [2], the TNF-α release (ELISA of the medium), % change from baseline with LPS, LPS + 1 mM choline, EOC20 cells transfected with empty vector was -25.8%. Besides, the peak of the intracellular calcium transient (GCaMP5G, % of baseline) on 3 mM choline, EOC20 cells transfected with α7 (345-8A) in assay [3] was 368%. In addition, in assay [4], the peak of the intracellular calcium transient (GCaMP5G, % of baseline) on 3 mM choline, EOC20 cells transfected with empty plasmid was determined as 580%.
